According to article PMC8934654, “Structural characterization of the ANTAR antiterminator domain bound to RNA”:

Columns and labels:
EutV [1] = target: T1, EutV (Enterococcus faecalis, UniProt A0A1Q1FU69 1-190); test: SPR; settings: SPR: 10 mM HEPES pH 7, 150 mM NaCl, 0.05% Tween-20, 2.5 mM MgCl2, 4 C; EMSA: 25 mM HEPES pH 7.5, 150 mM NaCl, 10 mM MgCl2, 4 C, 25 nM RNA
T1 sequence: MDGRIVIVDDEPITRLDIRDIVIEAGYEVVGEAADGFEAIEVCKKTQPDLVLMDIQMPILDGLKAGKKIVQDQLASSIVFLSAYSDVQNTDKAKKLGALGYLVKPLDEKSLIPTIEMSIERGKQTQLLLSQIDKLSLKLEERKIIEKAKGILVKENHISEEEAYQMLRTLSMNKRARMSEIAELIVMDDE

EutV N173A/R175A/R177A = EutV N173A/R175A/R177A (Enterococcus faecalis, UniProt A0A1Q1FU69 1-190, N173A;R175A;R177A); test: SPR; 2.5 mM MgCl2; SPR: 10 mM HEPES pH 7, 150 mM NaCl, 0.05% Tween-20, 2.5 mM MgCl2, 4 C; EMSA: 25 mM HEPES pH 7.5, 150 mM NaCl, 10 mM MgCl2, 4 C, 25 nM RNA; settings: protein: recombinant; chain copies: 2; label: 3' biotin-TEG; two hairpins with hexaloops P1 and P2
EutV M172A = EutV M172A (Enterococcus faecalis, UniProt A0A1Q1FU69 1-190, M172A); test: as above; settings: protein: recombinant; chain copies: 2; label: 3' biotin-TEG; two hairpins with hexaloops P1 and P2
EutV [2] = target: T1, EutV; test: SPR; CAPture chip, 2.5 mM MgCl2, n=8; SPR: 10 mM HEPES pH 7, 150 mM NaCl, 0.05% Tween-20, 2.5 mM MgCl2, 4 C; EMSA: 25 mM HEPES pH 7.5, 150 mM NaCl, 10 mM MgCl2, 4 C, 25 nM RNA; settings: protein: recombinant; tags: none (His-tag cleaved by TEV); chain copies: 2; label: 3' biotin-TEG; two hairpins with hexaloops P1 and P2
EutV E160A = EutV E160A (Enterococcus faecalis, UniProt A0A1Q1FU69 1-190, E160A); test: SPR; 2.5 mM MgCl2; SPR: 10 mM HEPES pH 7, 150 mM NaCl, 0.05% Tween-20, 2.5 mM MgCl2, 4 C; EMSA: 25 mM HEPES pH 7.5, 150 mM NaCl, 10 mM MgCl2, 4 C, 25 nM RNA; settings: protein: recombinant; chain copies: 2; label: 3' biotin-TEG; two hairpins with hexaloops P1 and P2
EutV R142A = EutV R142A (Enterococcus faecalis, UniProt A0A1Q1FU69 1-190, R142A); test: as above; settings: protein: recombinant; chain copies: 2; label: 3' biotin-TEG; two hairpins with hexaloops P1 and P2
EutV Y164A = EutV Y164A (Enterococcus faecalis, UniProt A0A1Q1FU69 1-190, Y164A); test: as above; settings: protein: recombinant; chain copies: 2; label: 3' biotin-TEG; two hairpins with hexaloops P1 and P2
EutV K143A/K147A = EutV K143A/K147A (Enterococcus faecalis, UniProt A0A1Q1FU69 1-190, K143A;K147A); test: as above; settings: protein: recombinant; chain copies: 2; label: 3' biotin-TEG; two hairpins with hexaloops P1 and P2
EutV [3] = target: T1, EutV; test: SPR; unphosphorylated, CM5 streptavidin chip, n=6; SPR: 10 mM HEPES pH 7, 150 mM NaCl, 0.05% Tween-20, 2.5 mM MgCl2, 4 C; EMSA: 25 mM HEPES pH 7.5, 150 mM NaCl, 10 mM MgCl2, 4 C, 25 nM RNA; settings: protein: recombinant; tags: none (His-tag cleaved by TEV); chain copies: 2; label: 3' biotin-TEG; two hairpins with hexaloops P1 and P2

Molecule: P1 hairpin
- Kd (EutV [1]): 6 µM

Molecule: P2 hairpin
- Kd (EutV [1]): 3.1 µM

B1: EutP RNA, 3' biotin (structured_RNA)
RNA: AGAAUCAGAAACACAAUGGCGUGUUUUAACAAAUCGGCAAAGGAGCCCAAG
- binding result (EutV N173A/R175A/R177A): no binding
- binding result (EutV M172A): no binding
- Kd (EutV [2]): 3.8 ± 2.1 µM
- binding signal (EutV E160A): 60 fold reduction in affinity vs WT
- binding signal (EutV R142A): 8 fold reduction in affinity vs WT
- binding signal (EutV Y164A): 55 fold reduction in affinity vs WT
- binding signal (EutV K143A/K147A): 5 fold reduction in affinity vs WT
- Kd (EutV [3]): 2.2 ± 0.2 µM
